Test results taken from the nanobody polyreactivity screen of Harvey et al. (2022).

Assay: yeast display, Sf9 membrane polyspecificity reagent, FACS + sequencing; frameworks hold sequencing errors
Procedure, shortened: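 Synthetic nanobody libraries on Saccharomyces cerevisiae BJ5465 were galactose-induced for 36–48 hours, stained 1 hour at 4 °C with 10% biotinylated, detergent-solubilized Sf9 membrane reagent and enriched on streptavidin microbeads. FACS then separated cells into low and high (top ~1%) gates by anti-HA (expression) and streptavidin (reagent binding) fluorescence. Genes were colony-PCR amplified, MiSeq 2 × 250 sequenced and CDR-length filtered. A clone's polyreactivity label is that of its gate of origin.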

| Sequence | polyreactivity (PSR sort gate) |
| --- | --- |
| QVQLVESGGGLVQAGGSLRLSCAASGRTFRGYAMGWYRPAPGKERELVAVISRGGRTNYADSVKGRFTISRDNAKNTVYLQMNSLKPEDTAVSYCAAEVAFIYSLRYDYWGQGTQVTVSS | high polyreactivity |
| QVQLVESGGGLVQAGGSLRLSCAASGRTFRGYAMGWYRQAPGKERELGAAITSSGGRTYYADSVKGRFTISRDNAKNTVYLQMNSLKPVDTAVYYCAKDYYSPRGYDYWGQGTQVTVSS | high polyreactivity |
| QVQLVESGGGLVQAGGSLRLSCAASGRTFRGYAMGWYRQAPGKERELVAGIRRGGSTNYADSVKGRFTISRDNSKNTVSLQMNSLKPEDTAVYYCAKTYTVSQPSLRTYYYWGQGTQVTVSS | high polyreactivity |
| QVQLVESGGGLVQAGGSLRLSCAASGRTFRINAMGWYRQAPGKERELVAAISFRTDSTYYADSVKGRFTISRDNAKNTVYLQMNSLKPEDTAVYYCDARGLQVRTYDYWGQGTQVTVSS | high polyreactivity |
| QVQLVESGGGLVQAGGSLRLSCAASGRTFRKNAMGWSRQAPGKDRELVAAISASGTSTYYADSVKGRFTISRDNAKNTVYLQLNSLKPEDTAVYYSAARSYGIYDYWGQGTQVTVSS | high polyreactivity |
| QVQLVESGGGLVQAGGSLRLSCAASGRTFRKYGMGWYRPAPGTERELVAAITRSGGSTYYADSVKGRFTISRDNAKNTVYLQMNCLKPEDTSVYYCARSPVVVGSFLSYDYLGQGTQVTVSS | high polyreactivity |
| QVQLVESGGGLVQAGGSLRLSCAASGRTFRLNAMGWYRQAPGKERELVAGIRVRAGTTYYADSVKGRFTISRDNAKNTVYLQRNSLKPEDTAVYYCAAESYSRSRKYDYWGQGTQVTVSS | high polyreactivity |
| QVQLVESGGGLVQAGGSLRLSCAASGRTFRLNGMGWYRQAPGKERELVAAITWSGGRTDYADSVKGRFTISRDNAKNTVYLQMNSLKPEDTAVYYCAAGKSSYGKPKYYYWGQGTQVTVSS | high polyreactivity |
| QVQLVESGGGLVQAGGSLRLSCAASGRTFRLNVMGWYRQAPGKERELVATISWSGGTTYYADSVKGRFTISRDNAKNTVYFQMNCLKPEDTAVYYCNRQVTWYPTGGYWGQGTQVTVSS | low polyreactivity |
| QVQLVESGGGLVQAGGSLRLSCAASGRTFRLYAMGWYRDATGKERELFAAISRRGTSTHYADSVKGRFTISRDNAKNTVYLQMNSLKPEDTAVYYCAVDSNTYSFYGTHDDWGQGTQVTVSS | high polyreactivity |
| QVQLVESGGGLVQAGGSLRLSCAASGRTFRLYAMGWYRQAPGKERELVAAISWRGGRTYYADSVKGRFTISRDNAKNTVYLQMNSLKPEDTAVYYCAAEDGYGQYDYWGQGTQVTVSS | high polyreactivity |
| QVQLVESGGGLVQAGGSLRLSCAASGRTFRLYAMGWYRQAPGKERELVATITSSGGSTYYADSVKGRFTISRDKAKNTVYLQMNSLKPEDTAVYYCAAQTYYSYDYWGQGTQVTVSS | low polyreactivity |
| QVQLVESGGGLVQAGGSLRLSCAASGRTFRNNAMGWYRQAPGKERELVAAISRTGGRTYYADSVKGRFTISRDNAKNTVYLQMNSLKPEDTAVYYCNAAYLVREYDYWGQGTQVTVSS | high polyreactivity |
| QVQLVESGGGLVQAGGSLRLSCAASGRTFRNYAMGWYRQAPGKERELVAAISRSGGITYYADSVKGRFTISRDNSKNTVYLQMNSLKPEDTAVYYCAARHTYQGPGTYPMFYWGQGTQVTVSS | high polyreactivity |
| QVQLVESGGGLVQAGGSLRLSCAASGRTFRPYAMGWDRQAPGKEREFVAAIRSSGDSTYYADSVKGRFTISRDNAKNTVYLQMNSLKPEDTAVYYCAADVYRYRVRGMNYWGQGTQVTVSS | high polyreactivity |
| QVQLVESGGGLVQAGGSLRLSCAASGRTFRPYAMGWYRQAPGKERELVAAIDSSGTSTYYADSVKGRFTISRDNAKNTVYLQMYSLKPEDTAVYYCAKAWPDHWYSRYDYWGQGTQVTVSS | low polyreactivity |
| QVQLVESGGGLVQAGGSLRLSCAASGRTFRPYAMGWYRQAPGKERELVAAITSCGSTYYADSVKGRFTISRDNAKNTVYLQMNSLKPEDTAVYYCNAKYYYQPPYDYWGQGTQVTVSS | low polyreactivity |
| QVQLVESGGGLVQAGGSLRLSCAASGRTFRPYAMGWYRQAPGKERELVAAITSGVSTYYADSVKGRFTISRDNAKNTVYLQMNSLKPEDTAVYYCNKVISREVGIRMDYWGQGTQVTVSS | high polyreactivity |
| QVQLVESGGGLVQAGGSLRLSCAASGRTFRQYAMGWYRQAPGKERELVATISSGGSTYYADSVKGRFTISRDNAKNTVYLLMNSLKPEDTAVYYCAAPYWARKYWRKFGPFDYWGQGTQVTVSS | low polyreactivity |
| QVQLVESGGGLVQAGGSLRLSCAASGRTFRQYAMGWYRQSPGKERELVATISGGGGNTYYADSVKGSFTISRDNAKNTVYLQMNSLKQEDTAVYYCAARRRDRPVRGYDYWGQGTQVTVSS | high polyreactivity |
| QVQLVESGGGLVQAGGSLRLSCAASGRTFRRNAMGWYRQAPGKERELVAAINTGGGTYYADSVKGRFTISRDHAKNTVYLQMNSLKPEDTAVYYCNAGTRYGSFSYVKYDWGQGTQVTVSS | high polyreactivity |
| QVQLVESGGGLVQAGGSLRLSCAASGRTFRRNAMGWYRQAPGKERELVAAIRWSSGSTYYADSVNGRFTISRDNAKNTVYLQMNSLKPEDTAVYYCAADGDWYGYIWQSDDGYDSWGQGTQVTVSS | low polyreactivity |

| Sequence | polyreactivity (PSR sort gate) |
| --- | --- |
| QVQLVESGGGLVQAGGSLRLSCAASGRTFRRNAMGWYRQAPGKERELVAPISRGGSTNYADSVKGRFSISRDNAKNTVYLQMNSMKPEDTAVFYCAARYYYRYNYWGQGTQVTVSS | high polyreactivity |
| QVQLVESGGGLVQAGGSLRLSCAASGRTFRRNAMGWYRQAPGKERELVASINRGGGTNYADSVKGRFTISRDNAKHTVYLQMNSLKPEDTAVYYCAAGPGTYWGYDYWGQGTQVTVSS | low polyreactivity |
| QVQLVESGGGLVQAGGSLRLSCAASGRTFRRNAMGWYRQAPGKERELVATITGGGRTNYADSVKGRFTISRDNAKNTVYLQMNSLKPEDTAVYYCAAAAGSYNTGYGYWGQGTQVTVSS | high polyreactivity |
| QVQLVESGGGLVQAGGSLRLSCAASGRTFRRNAMGWYRQAPGKEWELVADISNGDSTKYADSVKGRFTISRDNAKNTVYLQMNSLKPEDTAVYYCNAQRYRVVVYNSHGWQTRNYWGQGTQVTVSS | low polyreactivity |
| QVQLVESGGGLVQAGGSLRLSCAASGRTFRRNTMGWYRQAPGQEWELVAAISSSGSSTYYADSVKGRFTISRDNAKNTVYLQMKSLKPEDTAVYYCAATGYPRFGYWGQGTQVTVSS | high polyreactivity |
| QVQLVESGGGLVQAGGSLRLSCAASGRTFRRYAMGWYRQAPGKERELVAAIRSDGSTYYADSVKGRFTISRDNAKNTVYLQMNSLKPEDTAVYYCAKVLDQRRRYDYWGQGTQVTVSS | low polyreactivity |
| QVQLVESGGGLVQAGGSLRLSCAASGRTFRRYAMGWYRQAPGKERELVAAISRSGGSTSYADSVKGRFTISRDNAKNTVYLQMKSLKPEDTAVYYCAVEVASYDRRPSEYYWGQGTQVTVSS | high polyreactivity |
| QVQLVESGGGLVQAGGSLRLSCAASGRTFRRYTMGWYRQAPGKESELVATISSGGSTYADSVKGRFTISLDNAKNTVYLQMNSLKPEDTAVYYCAARYDVAWYSKRYSWGQGTQVTVSS | high polyreactivity |
| QVQLVESGGGLVQAGGSLRLSCAASGRTFRSYAMGWYRQAPGKERELVAAITRTGSTYYADSVKGRFTISRDNAKNTVYLQMNSLKPEDTAVYYCAARFVYGYDYWGQGTEVTVSS | high polyreactivity |
| QVQLVESGGGLVQAGGSLRLSCAASGRTFRSYAMGWYRQAPGKERELVAGITTSGGSTYYADSVKGRFTISRDNAKNTVYLQMNSLKPEDTAVYYCNARSWYSFHPHDYWGQGTQVTVSS | high polyreactivity |
| QVQLVESGGGLVQAGGSLRLSCAASGRTFRSYTRGWYRQAAGKERELVAAINRGDRTYADSVKGRFTISRDNAKNTVYLQMNSLKPEDTAVYYCAARYYGGYGKQPRARYGYWGQGTQVTVSS | high polyreactivity |
| QVQLVESGGGLVQAGGSLRLSCAASGRTFRTYAMGWYRQAPGKERELVAAITTSGSSTYYADSVNGRFTISRDNAKKTVYLQMNILKPEDTAVYYCAAARAAIVPGYYSWGQGSQVTVSS | low polyreactivity |
| QVQLVESGGGLVQAGGSLRLSCAASGRTFRTYTMGWYRQAPGKERELVAAISIGGRTNYADSVKGRFTISRDNAKNTVFLQMNSLKPEDTAVYYCIAARWVPRSYGYWGLGTQVTVSS | high polyreactivity |
| QVQLVESGGGLVQAGGSLRLSCAASGRTFRTYVMGWYRQAPGKEREFVAGITWSSGSTRYADSVKGRFTISRDNAKNTVYLQMNSLKPEDTAVYYCAAKRWPGTDGYWGQGTQVTVSS | high polyreactivity |
| QVQLVESGGGLVQAGGSLRLSCAASGRTFRTYVMGWYRQAPGKERELVAAITGSGGSTYYADSVKGRFTISRDNAKNTVYLQMNSLKPEDTAVYYCAADYRWDYYWYDYAEYDYWGQGTQVTVSS | low polyreactivity |
| QVQLVESGGGLVQAGGSLRLSCAASGRTFRTYVMGWYRRAPGKEREFVAGITWSSGSTRYADSVKGRFTISRDNAKNTVYLQMNSLKPEDTAVYYCAAKRWPGTDGYWGQGTQVTVSS | high polyreactivity |
| QVQLVESGGGLVQAGGSLRLSCAASGRTFRVYAIGWYRQAPGKERELVAAISGSGGSTYYADSVKGRFTISRDNAKNTVYLQMISLKPEDTAVYYCAKGSYRSYWYRAYDYWGQGTQVTVSS | low polyreactivity |
| QVQLVESGGGLVQAGGSLRLSCAASGRTFRVYAMGWYRPAPGKERELVATITSSGGSTYYADSVKGRFTISRDNAKNTVYLQMNSLKPEDTAVYYCNVSVYYNYDSSYYYWGQGTQVTVSS | low polyreactivity |
| QVQLVESGGGLVQAGGSLRLSCAASGRTFRVYAMGWYRPAPGKERELVATITSSGGSTYYADSVKGRFTISRDNAKNTVYLQMNSLKPEDTGVYYCNVSVYYNYDSSYYYWGQGTQVTVSS | low polyreactivity |
| QVQLVESGGGLVQAGGSLRLSCAASGRTFRVYAMGWYRQAPGKEREFVAAISYSGGRTYYADSVKGRFTISRDNAKNTVYLQMKSLKPEDTAVYYCAKRVPYGRGVTGYYWGQGTQVTVSS | high polyreactivity |
| QVQLVESGGGLVQAGGSLRLSCAASGRTFRVYAMGWYRQAPGKERELVAAINGRGGSTYYADSVKGRFTISRDNAKNTVYFQLNSLKPEDTAVYYCNALARTSWRMDYWGQGTQVTVSS | high polyreactivity |
